The record followed here is paper PMC9298306, “Controlling Enzymatic Activity by Modulating the Oligomerization State via Chemical Rescue and Optical Control” (Chembiochem, 2021).

Substitutions are numbered along the chain they refer to. Numbers in names are those of the source.

Data set [1] has as its target geranylgeranylglyceryl phosphate synthase from Methanothermobacter thermautotrophicus, wild type (Methanothermobacter thermautotrophicus) (UniProt O26652). The data set is described as follows: SEC-MALS; analytical SEC (Superdex 200 Increase 10/300 GL) in combination with static light scattering (right-angle light scattering and refractive index detectors); 40 μM subunit concentration; 50 mM potassium phosphate, pH 7.5, 300 mM KCl; room temperature (approx. 23 °C).

Data set [2] deals with mtGGGPS_(C194A)_K146C^+Am (Methanothermobacter thermautotrophicus) (UniProt O26652).
For data set [3] the target is unchanged. The data set is described as follows: SEC-MALS; analytical SEC (Superdex 200 Increase 10/300 GL) in combination with static light scattering (right-angle light scattering and refractive index detectors); 40 μM subunit concentration; 50 mM potassium phosphate, pH 7.5, 300 mM KCl; room temperature (approx. 23 °C).
Data set [4] addresses mtGGGPS_(C194A) (Methanothermobacter thermautotrophicus) (UniProt O26652). The description is as above.
Another data set deals with T1, mtGGGPS (Methanothermobacter thermautotrophicus, UniProt O26652, K143C/C191A, form not given).
T1 construct: gene MTH_552; His-tagged, expressed in E. coli BL21-Gold(DE3); hexamer (trimer of dimers); C194A/K146C variant is a dimer unless rescued
The data set is described as follows: coupled pyrophosphate/phosphate detection at […] nm (PPase, PNPase, xanthine oxidase), G1P-dependent. It counts as biochemical. As to conditions: 11 μM GGPP, 10 mM MgCl2, pH 8.0, 40 °C, 0.2 % Tween80; without bromoethylamine (−Am), dimer.

The test system of data set [5] is T2, RGGGPS (AncGGGPS2_N4_IF_n12).
T2 construct: His-tagged, from E. coli; hexamer
The data set is described as above. It counts as biochemical. The note with it: 11 μM GGPP, 10 mM MgCl2, pH 8.0, 40 °C, 0.2 % Tween80.

Substrate in the data set “purified protein”: O=P(O)(O)OC[C@@H](O)CO
The data set is described as follows: purified protein. As to conditions: 11 μM GGPP, 10 mM MgCl2, pH 8.0, 40 °C, 0.2 % Tween80. It counts as biochemical, Methanothermobacter thermautotrophicus.

T1 sequence (O26652 whole entry K143C/C191A, form open): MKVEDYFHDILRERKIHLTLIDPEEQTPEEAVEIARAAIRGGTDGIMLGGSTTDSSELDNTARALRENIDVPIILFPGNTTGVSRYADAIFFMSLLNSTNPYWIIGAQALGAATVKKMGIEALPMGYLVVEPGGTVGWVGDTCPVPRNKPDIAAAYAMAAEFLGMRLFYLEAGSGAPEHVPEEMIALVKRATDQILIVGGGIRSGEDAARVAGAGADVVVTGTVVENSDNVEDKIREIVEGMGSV

With “geranylgeranylglyceryl phosphate synthase from Methanothermobacter thermautotrophicus, wild type (from UniProt O26652 1-245) (enzyme)”, the stoichiometry N in data set [1] stood at 6.

On to “mtGGGPS_(C194A)_K146C^−Am (from UniProt O26652 1-245) (enzyme)”, for which the kcat/KM, photometric assay of the GGGPS reaction at 40 °C in data set [2] amounted to 550 M⁻¹ s⁻¹. The stoichiometry N in data set [3] was determined as 2.

Take “mtGGGPS_(C194A)_K146C^+Am (from UniProt O26652 1-245) (enzyme)”: the kcat/KM, photometric assay of the GGGPS reaction at 40 °C in data set [2] came out at 192000 M⁻¹ s⁻¹. Further, in data set [3], the percent in the hexameric state was 100% and the stoichiometry N came to 6.

For “mtGGGPS_(C194A) (from UniProt O26652 1-245) (enzyme)”, the stoichiometry N in data set [4] amounted to 6.

As for `O=P(O)(O)OC[C@@H](O)CO` [G1P, glycerol 1‐phosphate], the values for the Michaelis-Menten constant (Km) (on mtGGGPS; in data set [5]) were 63.4 ± 5.8 µM and 14.2 ± 2.2 µM, respectively.

B1: mtGGGPS (Methanothermobacter thermautotrophicus str. Delta H) (protein)
chain: MKVEDYFHDILRERKIHLTLIDPEEQTPEEAVEIARAAIRGGTDGIMLGGSTTDSSELDNTARALRENIDVPIILFPGNTTGVSRYADAIFFMSLLNSTNPYWIIGAQALGAATVKKMGIEALPMGYLVVEPGGTVGWVGDTKPVPRNKPDIAAAYAMAAEFLGMRLFYLEAGSGAPEHVPEEMIALVKRCTDQILIVGGGIRSGEDAARVAGAGADVVVTGTVVENSDNVEDKIREIVEGMGSV
notes: His-tagged, expressed in E. coli BL21-Gold(DE3); hexamer (trimer of dimers); C194A/K146C variant is a dimer unless rescued
Turning to B1, in “purified protein”, the Km stood at 2.0 ± 0.3 µM, the kcat stood at 0.23 ± 0.005 s⁻¹ and the kcat/Km was found to be 115000 ± 17000 M⁻¹ s⁻¹.

B2: mtGGGPS (Methanothermobacter thermautotrophicus str. Delta H; C191A) (protein)
chain: B1 chain with C191A
notes: as for B1
Turning to B2, in the data set “purified protein”, the Km stood at 3.3 ± 0.6 µM, the kcat stood at 0.29 ± 0.01 s⁻¹ and the kcat/Km came out at 88000 ± 18000 M⁻¹ s⁻¹.
